According to patent US20240024490A1, “BIFUNCTIONAL MOLECULES FOR SELECTIVE MODIFICATION OF TARGET SUBSTRATES” (The Broad Institute, Inc., priority 2021, published 2024):

Biological target: SmBiT fused to the N-terminus of BCR-ABL
Assay: NanoBiT split-luciferase complementation in cells, LgBiT and SmBiT at the N-terminus of BCR-ABL; complex induced by a homo-bifunctional small molecule (homo-PHICS)

fold increase in luminescence compared to the DMSO/background: 6 fold
Substance: LgBiT fused to the N-terminus of BCR-ABL (enzyme)
